Experiment [1] has as its system CD8α+ and CD8α− dendritic cells. The experiment is described as follows: Antigen presentation by sorted CD8α+ and CD8α− dendritic cell subsets to OTII T cells. It is filed as cell-based, mouse. As to conditions: for presentation to OTII T cells by individual dendritic cell subsets: CD8α+ and CD8α− subsets. As for the experimental part:
FIG. 5 is a graph showing that both dendritic cell subsets, i.e., cells that are CD8α+ and CD8α^−, can present (OVA)-301. CD11c+ dendritic cells were stained with antibody against CD8α and I-A^b MHC class H molecules and sorted into their respective CD8α+ and CD8α^− populations. 2×10^4 cells of each subtype were incubated with 1×10^5 purified OTII T cells with graded doses of OVA or (OVA)-3-1 for eighty-four hours with [^3H]thymidine (1 μCi) added for the last twelve hours. All data points were performed in triplicate.
In the mouse, there are three subsets of dendritic cells, which are defined by their expression of the cellular antigens CD8 and CD4, namely CD8 α^+CD4^−, CD8α^−CD4^+, and CD8αCD4^14,15. Many functional differences among these subsets have been described and it has been argued that the CD8α^+ subset may be solely responsible for maintaining peripheral tolerance while the CD8α^− subset induces immunity to captured antigen^14 To determine if the high-mannose receptor was restricted to a particular subset, a fluorescence cell sorter was used to separate dendritic cells into their respective CD8α^+ and CD8α^− subsets. Each subset was then tested for its ability to present OVA and (OVA)-3-1 to OTII T cells (FIG. 5). […] Thus, both dendritic cell subsets expressed a receptor capable of binding nonasaccharide 3-1 and mediating uptake of antigens modified with this oligosaccharide.
To obtain sufficient numbers of dendritic cells for antigen presentation and cytokine analysis, C57BL/6 mice were injected with a Flt3-ligand secreting tumor cell line to promote the expansion of dendritic cells. Fourteen days after this administration the mice were sacrificed and the spleens were isolated. Dendritic cells were purified from the spleens by positive selection with anti-CD11c microbeads as described above and stained with FITC-conjugated anti-1-A^b and cychrome-conjugated anti-CD8α. Cells were then sorted on a fluorescence-activated cell sorter, a MoFlo, (Dakocytomaton, Glostrup Denmark) into CD8α^+I-A^b+ and CD8α^−I-A^b+ populations. The purity of each subset was 80% with approximately 6% cross-contamination. Dendritic cells from each subset were used in antigen proliferation assays as described above (section 3.5.5).

The next experiment has as its system purified T cells. The experiment is described as follows: Addition to purified T cells in the absence of antigen-presenting cells. Conditions: no antigen-presenting cells. It is filed as cell-based, mouse.
Another experiment has as its system OTII T cells. The experiment is described as follows: Adoptive transfer of OTII cells, subcutaneous immunization, FACS count of donor T cells. It is filed as in vivo, mouse. As to conditions: 200 ng subcutaneous. The source says:
FIGS. 6A, 6B, and 6C are a schematic diagram (FIG. 6A) and a series of flow cytometry dot plots (FIGS. 6B and 6C). FIG. 6A is a schematic diagram that illustrates the adoptive transfer technique: CD4^+CD45.2^+ ovalbumin-specific T cells are adoptively transferred to congenic CD45.1^+ recipients. After immunization the draining lymph nodes and other lymphoid organs (e.g., the spleen) are isolated. Cells from these tissues are stained with an antibody against the CD45.2 isoform and the OTII T cell receptor to identify the original donor cells. […] B6.Ly5.2/Cr mice were injected intravenously with 2×10^7 OTII splenocytes. 24 hours later the mice were injected subcutaneously with PBS, OVA (200 ng), or (OVA)-3-1 (200 ng). […] Each panel represents two or more experiments.
In order to determine the immunological implications of (OVA)-3-1 internalization and presentation by dendritic cells in vivo, the technique of adoptive transfer (FIG. 6A) was employed to track the T cell responses to DC presented antigen^15. […]
CD45.2^+ VA-specific T cells were transferred to B6.Ly5.2/Cr (CD45.1^+) recipients and, after a twenty-four hour rest period, the mice were immunized subcutaneously with PBS, OVA or (OVA)-3-1. After seventy-two hours, cells were isolated from the draining inguinal lymph nodes and counted by FACS to determine the extent of OTII cell division induced by the immunization regimen (FIG. 6B). […]

These results are taken from patent US8273357B2, “Antigen-carbohydrate conjugates” (Massachusetts Institute of Technology, priority 2004, dated 2012).

Entries after “also recorded” stand apart in the source; their conditions may differ.

B1: (OVA)-3-1: ovalbumin modified via SMCC with nonasaccharide 3-1, average of three saccharides per OVA (conjugate)
chain: GSIGAASMEFCFDVFKELKVHHANENIFYCPIAIMSALAMVYLGAKDSTRTQINKVVRFDKLPGFGDSIEAQCGTSVNVHSSLRDILNQITKPNDVYSFSLASRLYAEERYPILPEYLQCVKELYRGGLEPINFQTAADQARELINSWVESQTNGIIRNVLQPSSVDSQTAMVLVNAIVFKGLWEKAFKDEDTQAMPFRVTEQESKPVQMMYQIGLFRVASMASEKMKILELPFASGTMSMLVLLPDEVSGLEQLESIINFEKLTEWTSSNVMEERKIKVYLPRMKMEEKYNLTSVLMAMGITDVFSSSANLSGISSAESLKISQAVHAAHAEINEAGREVVGSAEAGVDAASVSEEFRADHPFLFCIKHIATNAVLFFGRCVSP
Take B1: the “presentation to OTII T cells by individual dendritic cell subsets” value in experiment [1] was “presented by each subset”; in experiment [1] (listed as (OVA)-301), “can present”. Moreover, in experiment [1] (sorted subsets, OTII T cells), the “efficiency of presentation by CD8α+ subset relative to CD8α− subset” value was “approximately 2 fold”. For the same molecule, the T cell proliferation result in the experiment with purified T cells was “did not led to T cell proliferation”. Further, the “total OTII cell number in the draining lymph node compared to soluble OVA” value in the experiment with OTII T cells (72 h) is “doubling; also recorded: promotes expansion”. The “total OTII cell number in the spleen” value with OTII T cells (3 days) was “appreciable increase”.

B2: ovalbumin (protein, UniProt P01012 2-386, looked up)
Ovalbumin: GSIGAASMEFCFDVFKELKVHHANENIFYCPIAIMSALAMVYLGAKDSTRTQINKVVRFDKLPGFGDSIEAQCGTSVNVHSSLRDILNQITKPNDVYSFSLASRLYAEERYPILPEYLQCVKELYRGGLEPINFQTAADQARELINSWVESQTNGIIRNVLQPSSVDSQTAMVLVNAIVFKGLWEKAFKDEDTQAMPFRVTEQESKPVQMMYQIGLFRVASMASEKMKILELPFASGTMSMLVLLPDEVSGLEQLESIINFEKLTEWTSSNVMEERKIKVYLPRMKMEEKYNLTSVLMAMGITDVFSSSANLSGISSAESLKISQAVHAAHAEINEAGREVVGSAEAGVDAASVSEEFRADHPFLFCIKHIATNAVLFFGRCVSP
notes: model antigen, unmodified
As for B2, the “presentation to OTII T cells by individual dendritic cell subsets” value in experiment [1] is “only weakly presented”.
